These results are taken from PMC12416549 (2024).

The chains are these.
T1: TNFR1 (Homo sapiens, UniProt P19438)
T1 chain: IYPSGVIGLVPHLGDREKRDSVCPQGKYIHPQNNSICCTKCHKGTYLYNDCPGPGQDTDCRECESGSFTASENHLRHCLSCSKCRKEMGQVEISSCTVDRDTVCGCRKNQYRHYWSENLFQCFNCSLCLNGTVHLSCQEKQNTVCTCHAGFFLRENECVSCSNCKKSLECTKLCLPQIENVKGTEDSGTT

B1: A105H (designed binder)
chain: SMEEEVEKAAKEYEKKKKEAIEKHLEKLKAKDKEAAERFLKELEEAAKEYAKDEAKTMSEEEAKRRAKKYKEKVLLSELSEEEQKEIKEAEEKLVRTILKYVEEHAK
B2: E4R (designed binder)
chain: SMEREVEKAAKEYEKKKKEAIEKHLEKLKAKDKEAAERFLKELEEAAKEYAKDEAKTMSEEEAKRRAKKYKEKVLLSELSEEEQKEIKEAEEKLVRTILKYVEEAAK
B3: V102M (designed binder)
chain: SMEEEVEKAAKEYEKKKKEAIEKHLEKLKAKDKEAAERFLKELEEAAKEYAKDEAKTMSEEEAKRRAKKYKEKVLLSELSEEEQKEIKEAEEKLVRTILKYMEEAAK
B4: K73C (designed binder)
chain: SMEEEVEKAAKEYEKKKKEAIEKHLEKLKAKDKEAAERFLKELEEAAKEYAKDEAKTMSEEEAKRRAKKYKECVLLSELSEEEQKEIKEAEEKLVRTILKYVEEAAK
B5: I87R (designed binder)
chain: SMEEEVEKAAKEYEKKKKEAIEKHLEKLKAKDKEAAERFLKELEEAAKEYAKDEAKTMSEEEAKRRAKKYKEKVLLSELSEEEQKERKEAEEKLVRTILKYVEEAAK
B6: A20H (designed binder)
chain: SMEEEVEKAAKEYEKKKKEHIEKHLEKLKAKDKEAAERFLKELEEAAKEYAKDEAKTMSEEEAKRRAKKYKEKVLLSELSEEEQKEIKEAEEKLVRTILKYVEEAAK
B7: E37R (designed binder)
chain: SMEEEVEKAAKEYEKKKKEAIEKHLEKLKAKDKEAARRFLKELEEAAKEYAKDEAKTMSEEEAKRRAKKYKEKVLLSELSEEEQKEIKEAEEKLVRTILKYVEEAAK
B8: E4P (designed binder)
chain: SMEPEVEKAAKEYEKKKKEAIEKHLEKLKAKDKEAAERFLKELEEAAKEYAKDEAKTMSEEEAKRRAKKYKEKVLLSELSEEEQKEIKEAEEKLVRTILKYVEEAAK
B9: V95S (designed binder)
chain: SMEEEVEKAAKEYEKKKKEAIEKHLEKLKAKDKEAAERFLKELEEAAKEYAKDEAKTMSEEEAKRRAKKYKEKVLLSELSEEEQKEIKEAEEKLSRTILKYVEEAAK
B10: F39A (designed binder)
chain: SMEEEVEKAAKEYEKKKKEAIEKHLEKLKAKDKEAAERALKELEEAAKEYAKDEAKTMSEEEAKRRAKKYKEKVLLSELSEEEQKEIKEAEEKLVRTILKYVEEAAK
B11: E45H (designed binder)
chain: SMEEEVEKAAKEYEKKKKEAIEKHLEKLKAKDKEAAERFLKELEHAAKEYAKDEAKTMSEEEAKRRAKKYKEKVLLSELSEEEQKEIKEAEEKLVRTILKYVEEAAK
B12: R66P (designed binder)
chain: SMEEEVEKAAKEYEKKKKEAIEKHLEKLKAKDKEAAERFLKELEEAAKEYAKDEAKTMSEEEAKRPAKKYKEKVLLSELSEEEQKEIKEAEEKLVRTILKYVEEAAK
B13: I98H (designed binder)
chain: SMEEEVEKAAKEYEKKKKEAIEKHLEKLKAKDKEAAERFLKELEEAAKEYAKDEAKTMSEEEAKRRAKKYKEKVLLSELSEEEQKEIKEAEEKLVRTHLKYVEEAAK
B14: E92Y (designed binder)
chain: SMEEEVEKAAKEYEKKKKEAIEKHLEKLKAKDKEAAERFLKELEEAAKEYAKDEAKTMSEEEAKRRAKKYKEKVLLSELSEEEQKEIKEAEYKLVRTILKYVEEAAK
B15: A63T (designed binder)
chain: SMEEEVEKAAKEYEKKKKEAIEKHLEKLKAKDKEAAERFLKELEEAAKEYAKDEAKTMSEEETKRRAKKYKEKVLLSELSEEEQKEIKEAEEKLVRTILKYVEEAAK
B16: E12Y (designed binder)
chain: SMEEEVEKAAKYYEKKKKEAIEKHLEKLKAKDKEAAERFLKELEEAAKEYAKDEAKTMSEEEAKRRAKKYKEKVLLSELSEEEQKEIKEAEEKLVRTILKYVEEAAK
B17: S77P (designed binder)
chain: SMEEEVEKAAKEYEKKKKEAIEKHLEKLKAKDKEAAERFLKELEEAAKEYAKDEAKTMSEEEAKRRAKKYKEKVLLPELSEEEQKEIKEAEEKLVRTILKYVEEAAK
B18: K17S (designed binder)
chain: SMEEEVEKAAKEYEKKSKEAIEKHLEKLKAKDKEAAERFLKELEEAAKEYAKDEAKTMSEEEAKRRAKKYKEKVLLSELSEEEQKEIKEAEEKLVRTILKYVEEAAK
B19: K31R (designed binder)
chain: SMEEEVEKAAKEYEKKKKEAIEKHLEKLKARDKEAAERFLKELEEAAKEYAKDEAKTMSEEEAKRRAKKYKEKVLLSELSEEEQKEIKEAEEKLVRTILKYVEEAAK
B20: A47K (designed binder)
chain: SMEEEVEKAAKEYEKKKKEAIEKHLEKLKAKDKEAAERFLKELEEAKKEYAKDEAKTMSEEEAKRRAKKYKEKVLLSELSEEEQKEIKEAEEKLVRTILKYVEEAAK
B21: K18C (designed binder)
chain: SMEEEVEKAAKEYEKKKCEAIEKHLEKLKAKDKEAAERFLKELEEAAKEYAKDEAKTMSEEEAKRRAKKYKEKVLLSELSEEEQKEIKEAEEKLVRTILKYVEEAAK
B22: K68E (designed binder)
chain: SMEEEVEKAAKEYEKKKKEAIEKHLEKLKAKDKEAAERFLKELEEAAKEYAKDEAKTMSEEEAKRRAEKYKEKVLLSELSEEEQKEIKEAEEKLVRTILKYVEEAAK
B23: K93C (designed binder)
chain: SMEEEVEKAAKEYEKKKKEAIEKHLEKLKAKDKEAAERFLKELEEAAKEYAKDEAKTMSEEEAKRRAKKYKEKVLLSELSEEEQKEIKEAEECLVRTILKYVEEAAK
B24: A55E (designed binder)
chain: SMEEEVEKAAKEYEKKKKEAIEKHLEKLKAKDKEAAERFLKELEEAAKEYAKDEEKTMSEEEAKRRAKKYKEKVLLSELSEEEQKEIKEAEEKLVRTILKYVEEAAK
B25: E82H (designed binder)
chain: SMEEEVEKAAKEYEKKKKEAIEKHLEKLKAKDKEAAERFLKELEEAAKEYAKDEAKTMSEEEAKRRAKKYKEKVLLSELSEHEQKEIKEAEEKLVRTILKYVEEAAK
B26: K71T (designed binder)
chain: SMEEEVEKAAKEYEKKKKEAIEKHLEKLKAKDKEAAERFLKELEEAAKEYAKDEAKTMSEEEAKRRAKKYTEKVLLSELSEEEQKEIKEAEEKLVRTILKYVEEAAK
B27: E14M (designed binder)
chain: SMEEEVEKAAKEYMKKKKEAIEKHLEKLKAKDKEAAERFLKELEEAAKEYAKDEAKTMSEEEAKRRAKKYKEKVLLSELSEEEQKEIKEAEEKLVRTILKYVEEAAK
B28: E54W (designed binder)
chain: SMEEEVEKAAKEYEKKKKEAIEKHLEKLKAKDKEAAERFLKELEEAAKEYAKDWAKTMSEEEAKRRAKKYKEKVLLSELSEEEQKEIKEAEEKLVRTILKYVEEAAK
B29: S1H (designed binder)
chain: HMEEEVEKAAKEYEKKKKEAIEKHLEKLKAKDKEAAERFLKELEEAAKEYAKDEAKTMSEEEAKRRAKKYKEKVLLSELSEEEQKEIKEAEEKLVRTILKYVEEAAK
B30: L43S (designed binder)
chain: SMEEEVEKAAKEYEKKKKEAIEKHLEKLKAKDKEAAERFLKESEEAAKEYAKDEAKTMSEEEAKRRAKKYKEKVLLSELSEEEQKEIKEAEEKLVRTILKYVEEAAK
B31: A105K (designed binder)
chain: SMEEEVEKAAKEYEKKKKEAIEKHLEKLKAKDKEAAERFLKELEEAAKEYAKDEAKTMSEEEAKRRAKKYKEKVLLSELSEEEQKEIKEAEEKLVRTILKYVEEKAK
B32: E89L (designed binder)
chain: SMEEEVEKAAKEYEKKKKEAIEKHLEKLKAKDKEAAERFLKELEEAAKEYAKDEAKTMSEEEAKRRAKKYKEKVLLSELSEEEQKEIKLAEEKLVRTILKYVEEAAK
B33: K85H (designed binder)
chain: SMEEEVEKAAKEYEKKKKEAIEKHLEKLKAKDKEAAERFLKELEEAAKEYAKDEAKTMSEEEAKRRAKKYKEKVLLSELSEEEQHEIKEAEEKLVRTILKYVEEAAK

The target in this assay is T1, TNFR1. Nature of the assay: yeast display SC50.
As for B1, the “apparent Kd (screen)” value is 2.05 nM.
Take B2: the “apparent Kd (screen)” value came to 1.69 nM.
As for B3, the figure is 0.49 nM; as for B4, 24.4 nM; as for B5, 16.7 nM.
Regarding B6, the “apparent Kd (screen)” value is 0.446 nM.
Turning to B7, the “apparent Kd (screen)” value came to 0.446 nM.
For B8, the “apparent Kd (screen)” value amounted to 3.3 nM.
Consider B9, for which the “apparent Kd (screen)” value amounted to 13.8 nM.
As to B10, the “apparent Kd (screen)” value was 3 nM.
The same measure for B11: 3.3 nM; for B12: 0.593 nM.
As for B13, the figure is 5.84 nM; as for B14, 13.8 nM; as for B15, 16.7 nM.
For B16, the “apparent Kd (screen)” value was found to be 0.593 nM.
The same measure for B17: 11.4 nM; for B18: 1.27 nM; for B19: 0.49 nM.
Consider B20, for which the “apparent Kd (screen)” value was 0.49 nM.
As for B21, the “apparent Kd (screen)” value was found to be 0.869 nM.
On to B22, for which the “apparent Kd (screen)” value stood at 1.4 nM.
B23: the “apparent Kd (screen)” value was determined as 1.54 nM.
The same measure for B24: 1.27 nM; for B25: 0.446 nM.
B26: the “apparent Kd (screen)” value worked out at 0.49 nM.
For B27, the “apparent Kd (screen)” value is 12.5 nM.
Turning to B28, the “apparent Kd (screen)” value worked out at 0.869 nM.
For B29, the “apparent Kd (screen)” value came to 1.4 nM.
As for B30, the figure is 0.49 nM.
Turning to B31, the “apparent Kd (screen)” value was determined as 1.86 nM.
Turning to B32, the “apparent Kd (screen)” value was found to be 1.86 nM.
As for B33, the figure is 0.869 nM.
